The source of these data is article PMC9358478 (The Journal of Biological Chemistry, 2022).

The target in this assay is T1, full-length recombinant human TG2 (human, UniProt P21980 1-687).
T1 sequence: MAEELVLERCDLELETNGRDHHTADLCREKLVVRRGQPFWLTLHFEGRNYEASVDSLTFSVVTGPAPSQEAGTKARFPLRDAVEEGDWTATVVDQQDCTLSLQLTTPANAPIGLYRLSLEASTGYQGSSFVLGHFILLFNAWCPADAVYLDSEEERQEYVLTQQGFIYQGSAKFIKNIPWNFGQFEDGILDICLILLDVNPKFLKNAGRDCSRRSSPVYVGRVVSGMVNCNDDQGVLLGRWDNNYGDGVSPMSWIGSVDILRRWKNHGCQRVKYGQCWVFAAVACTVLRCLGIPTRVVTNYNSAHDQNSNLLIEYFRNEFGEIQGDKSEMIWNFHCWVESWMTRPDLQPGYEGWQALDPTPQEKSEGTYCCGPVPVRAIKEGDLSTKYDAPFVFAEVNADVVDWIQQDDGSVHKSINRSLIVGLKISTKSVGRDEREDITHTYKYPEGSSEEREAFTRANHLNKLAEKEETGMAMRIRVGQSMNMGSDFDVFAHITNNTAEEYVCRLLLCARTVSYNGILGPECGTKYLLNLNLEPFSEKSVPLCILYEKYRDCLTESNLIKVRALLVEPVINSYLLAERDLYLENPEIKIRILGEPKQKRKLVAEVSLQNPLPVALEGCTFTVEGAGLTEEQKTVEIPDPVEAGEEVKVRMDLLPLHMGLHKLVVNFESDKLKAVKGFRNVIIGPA
The experiment in a line: co-IP.

B1: full-length recombinant human ILK (natural protein)
chain: MDDIFTQCREGNAVAVRLWLDNTENDLNQGDDHGFSPLHWACREGRSAVVEMLIMRGARINVMNRGDDTPLHLAASHGHRDIVQKLLQYKADINAVNEHGNVPLHYACFWGQDQVAEDLVANGALVSICNKYGEMPVDKAKAPLRELLRERAEKMGQNLNRIPYKDTFWKGTTRTRPRNGTLNKHSGIDFKQLNFLTKLNENHSGELWKGRWQGNDIVVKVLKVRDWSTRKSRDFNEECPRLRIFSHPNVLPVLGACQSPPAPHPTLITHWMPYGSLYNVLHEGTNFVVDQSQAVKFALDMARGMAFLHTLEPLIPRHALNSRSVMIDEDMTARISMADVKFSFQCPGRMYAPAWVAPEALQKKPEDTNRRSADMWSFAVLLWELVTREVPFADLSNMEIGMKVALEGLRPTIPPGISPHVCKLMKICMNEDPAKRPKFDMIVPILEKMQDK
As to B1, the binding result is recorded as “binds”.
